Patent publication US9732156B2, “Methods of treating rheumatoid arthritis using antibodies to matrix metalloproteinase 9” (Gilead Biologics, Inc., priority 2012, dated 2017)

B1: AB0046: mouse anti-mouse MMP9 surrogate antibody, kappa light chain (SEQ ID NO: 45), IgG1 heavy chain (SEQ ID NO: 46) (antibody, listed as Mus musculus)
heavy: MGWSSIILFLVATATGVHSQVQLQQPGSVLVRPGASVKLSCTASGYTFTSYWMNWVKQRPGQGLEWIGEIYPISGRTNYNEKFKVKATLTVDTSSSTAYMDLNSLTSEDSAVYYCARSRANWDDYWGQGTTLTVSSAKTTPPSVYPLAPGSAAQTNSMVTLGCLVKGYFPEPVTVTWNSGSLSSGVHTFPAVLQSDLYTLSSSVTVPSSTWPSETVTCNVAHPASSTKVDKKIVPRDCGCKPCICTVPEVSSVFIFPPKPKDVLTITLTPKVTCVVVDISKDDPEVQFSWFVDDVEVHTAQTQPREEQFNSTFRSVSELPIMHQDWLNGKEFKCRVNSAAFPAPIEKTISKTKGRPKAPQVYTIPPPKEQMAKDKVSLTCMITDFFPEDITVEWQWNGQPAENYKNTQPIMDTDGSYFVYSKLNVQKSNWEAGNTFTCSVLHEGLHNHHTEKSLSHSPGK
light: MSSAQFLGLLLLCFQGTRCDIQMTQTTSSLSASLGDRVTISCSASQGISNYLNWYQQKPDGTFKLLIYYTSILHSGVPSRFSGSGSGTDYSLTISNLEPEDIATYYCQQYGWLPRTFGGGTKLEIKRADAAPTVSIFPPSSEQLTSGGASVVCFLNNFYPKDINVKWKIDGSERQNGVLNSWTDQDSKDSTYSMSSTLTLTKDEYERHNSYTCEATHKTSTSPIVKSFNRNEC
modifications: CHAIN (1)...(460) AB0046 IgG1 heavy chain; CHAIN (1)...(233) AB0046 kappa light chain
B2: AB0045: humanized variant anti-MMP9 antibody, modified IgG4 (S241P), heavy chain variant VH3 (SEQ ID NO: 7), light chain Vk4 (SEQ ID NO: 12) (antibody, V domains shown)
VH: QVQLQESGPGLVKPSETLSLTCTVSGFSLLSYGVHWVRQPPGKGLEWLGVIWTGGTTNYNSALMSRFTISKDDSKNTVYLKMNSLKTEDTAIYYCARYYYGMDYWGQGTLVTVSS
VL: DIQMTQSPSSLSASVGDRVTITCKASQDVRNTVAWYQQKPGKAPKLLIYSSSYRNTGVPDRFSGSGSGTDFTLTISSLQAEDVAVYYCQQHYITPYTFGGGTKVEIK
modifications: modified IgG4 S241P constant region

Assays:
DSS-induced colitis [1] = assay: DSS colitis model, prophylactic treatment (Example 5); type: in vivo, mouse
Experimental: The efficacy of AB0046 in a prophylactic setting was assessed and compared with reference agent Prednisolone. The indicated treatment was given at day −1, with the indicated dosing schedules. Induction of disease with 3% DSS was initiated at day 0 and was as described above. Animals were sacrificed at day 14.

DSS-induced colitis [2] = assay: DSS-induced colitis model, treatment of established disease (Example 4); type: in vivo, mouse
Text: The dextran sodium sulfate (DSS)-induced model of colitis is an accepted model for evaluation of inflammatory bowel disease therapeutics. In this model, oral administration of DSS to mice or rats results in damage to the colonic mucosa. Animals receiving DSS develop bloody diarrhea and lose weight. The inflammation and tissue degradation observed in this model is restricted to the mucosa and generally affects the entire colon. […] The localization of disease and the pathology observed in this model is considered to be reminiscent of human ulcerative colitis (UC), including similar inflammatory cell infiltrate, ulceration, and crypt abscesses.
AB0046 was used in the DSS colitis model (in a 14-day treatment model). Treatment began after 5 days of oral exposure to 3% DSS in drinking water, according to the following experimental design: disease induction with 3% DSS was carried out beginning at day 0 through day 5, with treatment beginning at day 6 (treatment details for animals in groups 1-5 given in Table 2, below); animals were sacrificed at day 14. Etanercept (marketed under the trade name ENBREL®) was used as a reference compound for the therapeutic effect of anti-TNFα therapy in this model. AC-1, an irrelevant antibody of matched isotype (IgG1), was used as a control.
The course of disease was evaluated by video endoscopy (at days 6, 10, and 14), animal weight measurements, observation of stool consistency, and post-study histopathology analysis of colons.
Video endoscopy of the lower colon was performed in a blinded fashion using a small animal endoscope; colitis was scored visually on a scale of 1-4 based on the degree of ulceration, friability, and vascularity present in the tissue. Each mouse was assigned a single score corresponding to the most severe damage observed throughout the entire length of the colon examined.
At study termination, the majority of the distal colon was excised from each animal, formalin-fixed, then embedded in paraffin and sectioned for histology. Slides were stained with hematoxylin and eosin and examined by a board-certified veterinary pathologist blinded as to treatment groups. Tissues were scored for inflammation, edema, and mucosal necrosis according to the scoring scale of 1-4 for each parameter. Sum pathology scores were calculated by summing the three individual parameter score means (inflammation, edema and necrosis).
Body weight and the incidence of diarrhea were recorded daily over the course of the study. The evaluation of body weight changes was performed by calculating the area under the curve (AUC) with the trapezoidal rule method; a similar calculation of AUC for stool consistency was performed by assigning incidence of diarrhea a score of 100 and lack of diarrhea a score of 0.
A trend for reduction of systemic disease-associated cytokines by AB0046 was observed. […] Serum MMP-9 levels were not induced (i.e., no difference between no DSS and vehicle groups; interference by drug antibody cannot be ruled out for MMP9 serum level measurements).

[3] = test system: collagen-induced arthritis; assay: CIA mouse model of rheumatoid arthritis; type: in vivo
Experimental: This example provides additional characterizations of the animals in example 7 that were treated with either vehicle, AB0041 (in the rat model) or AB0046 (in the mouse model) at 2, 10, or 50 mg/Kg, Enbrel at 10 mg/Kg, or methotrexate (MTX) at 0.5 mg/Kg.
In addition to clinical scoring in Table 6 that was conducted in example 7, paw swelling, ankle diameter and body weights of the treated animals were measured. The measurements were conducted once a week before randomization and three times a week thereafter.
In addition, hind limbs were examined microscopically for soft-tissue changes (edema, tissue/vessel necrosis, inflammatory cell infiltration, and fibroplasias) and cartilage and bone changes (cartilage erosion, bone erosion, periosteal bone formation, synovitis, pannus formation, and joint destruction). A standard severity score was used: 0=no significant change, 1=minimal, 2=mild, 3=moderate and 4=severe. The severity scores were based on global changes in each limb.
(§1) Further, serum panel analyses of terminal serum samples were characterized using ELISA. […] AB0046 titers were measured in terminal serum samples.

[4] = Antibody titers in serum of the CIA study; type: in vivo, mouse
Experimental: as §1

MMP9 [5] = molecular target: T1, MMP9 (Homo sapiens, UniProt P14780); assay: Comparison of binding and inhibitory properties of anti-MMP9 antibodies; conditions: AB0045 compared with AB0041
Target sequence in this assay (P14780 94-707, species assumed): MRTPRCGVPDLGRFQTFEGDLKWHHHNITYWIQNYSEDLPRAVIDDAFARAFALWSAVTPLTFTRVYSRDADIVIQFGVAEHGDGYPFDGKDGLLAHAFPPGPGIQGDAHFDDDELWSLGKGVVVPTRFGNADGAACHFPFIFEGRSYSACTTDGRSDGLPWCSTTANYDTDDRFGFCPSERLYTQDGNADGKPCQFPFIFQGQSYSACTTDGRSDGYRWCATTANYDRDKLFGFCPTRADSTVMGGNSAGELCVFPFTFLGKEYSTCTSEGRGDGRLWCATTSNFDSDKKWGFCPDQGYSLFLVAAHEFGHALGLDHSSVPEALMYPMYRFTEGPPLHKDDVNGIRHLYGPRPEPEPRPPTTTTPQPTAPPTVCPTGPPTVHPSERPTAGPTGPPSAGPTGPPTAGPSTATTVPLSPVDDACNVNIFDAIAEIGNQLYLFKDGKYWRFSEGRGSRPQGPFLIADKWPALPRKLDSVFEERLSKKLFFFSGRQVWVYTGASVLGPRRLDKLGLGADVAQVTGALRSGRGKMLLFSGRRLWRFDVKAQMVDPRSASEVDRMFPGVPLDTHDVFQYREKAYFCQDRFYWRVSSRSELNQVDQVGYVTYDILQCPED

CD4+ T cell = assay: EpiScreen ex vivo human T cell activation assay (immunogenicity); type: cell-based; conditions: CD4+ T cell response, 20 healthy donors of various HLA haplotypes
Experimental: The potential clinical immunogenicity of the chimeric MMP9 antibody AB0041 and the humanized MMP9 antibody AB0045 was assessed. An ex vivo human T cell activation assay, the EpiScreen (Antitope, Ltd., Cambridge, UK) was used. The T cell activation in the EpiScreen assay has been correlated to the antibody/protein therapeutic responses in patients. The response of CD4+ T cell in 20 healthy donors, representing a variety of HLA haplotypes, was examined. […] A positive control of KLH induced a response in 95% of the donors, with a magnitude of 6.34+/−2.77 (mean+/−standard deviation).

MMP9 [6] = molecular target: T1, MMP9; assay: IHC binding of AB0045 in UC patient colon tissue; set-up: from tissue; host or cells: colon tissue (biopsies) of human ulcerative colitis patients
Experimental: Biopsy samples from human patients with ulcerative colitis (UC) and healthy individuals were examined by immunohistochemistry (IHC) using the MMP9-specific antibodies. Antibodies against myeloperoxidase (MPO, a neutrophil marker; Wirtz 2007), collagen IV (COLIV, basement membranes) and CD31 (endothelial cells) were used to assess disease severity and tissue infrastructure. Staining patterns of TIMP1 and MMP2 also were examined. PMK2 (a macrophage marker) also was assessed.
Target sequence in this assay (P14780 94-707): as the sequence (P14780 94-707, species assumed) above

Molecule	endoscopic evaluation (DSS-induced colitis [1]; Day 10, 30 mg/kg IP from day −1)	incidence of diarrhea (DSS-induced colitis [1]; prophylactic administration)	inflammation, edema, necrosis and pathology sum score (DSS-induced colitis [1]; study termination)	reduction of the incidence of diarrhea (DSS-induced colitis [2]; AUC, did not reach statistical significance)	mean endoscopy score (DSS-induced colitis [2]; Day 14 (and Day 10), vs Vehicle and AC-1, AB0046 30 mg/kg IP, ENBREL 10 mg/kg IP)	histopathology: inflammation, edema, mucosal necrosis (DSS-induced colitis [2]; colons at termination, compared to vehicle)	disease-associated increases in serum MCP-1, MCP-3 and eotaxin (DSS-induced colitis [2]; terminal serum)	serum mediators KC/GRO, CXCL10, MPO, LIF, MIP-2, MCP-5 (DSS-induced colitis [2]; terminal serum, multianalyte ELISA)	serum IL-17A (DSS-induced colitis [2]; terminal serum, near lower level of quantification)	serum IL-6 (DSS-induced colitis [2]; terminal serum, not distinguished from AC-1 isotype control)	MMP9 expression in colon by IHC (DSS-induced colitis [2]; three colons per group)	body weight loss (AUC) (DSS-induced colitis [2]; vs AC-1 isotype control or vehicle)	soft tissue disease, joint damage and destruction (histology) ([3]; 50 mg/kg)	qualitative and quantitative measurements of clinical disease (paw swelling, ankle diameter, body weight) ([3]; all doses (2, 10, 50 mg/Kg))	serum markers (KC/GRO, MIP-2, GCP-2, lymphotactin, MCP-1, MCP-3, CXCL-10, OSM, MIP-1β, MIP-1γ, Apo A-1) ([3]; terminal serum, ELISA)	antibody titer in serum ([4]; 2 mg/kg dose level)	antibody titer in terminal serum ([4]; dosing regimens of 10 and 50 mg/kg)	binding and inhibitory properties (MMP9 [5])	donors in which a response was induced (CD4+ T cell)	binding to MMP9 by IHC (MMP9 [6])
B1	efficacy of AB0046 prophylactic treatment was observed	reduced the incidence of diarrhea	reduced inflammation, edema, and necrosis	about 30%	significant improvement in mean endoscopy scores	significantly reduced all three aspects of disease pathology	reduced	systemic reduction	trend for a reduction	reduction	reduction in MMP9 expression	significant protection against body weight loss	reduced all measures of soft tissue diseases, joint damage and destruction	significant reversal/mitigation	statistically significant reduction	not detectable	measurable drug levels	–	–	–
B2	–	–	–	–	–	–	–	–	–	–	–	–	–	–	–	–	–	equivalent binding and inhibitory properties	did not induce response in any of the donors	bound to MMP9 in UC patient colon tissue
